“Also recorded” adds a separate entry of the source.
Experiments:
[1] = Chromogenic reaction of degrading herbicides in bacteria: 2,4-D; assay type: cell-based, Escherichia coli; conditions: recombinant E. coli expressing the gene, 2,4-D added to the medium, red = phenols
Protocol: (§1) To transform the plasmids to be tested, an AAD12-expressing plasmid and a blank control plasmid pET15b were respectively transformed into the protein expression E. coli BL21(DE3) strains. A monoclone was selected and inoculated in a 10 ml centrifuge tube with 3 ml LB medium, and cultivated at 37° C., 200 rpm for 6-8 hours. The culture medium was added with 0.1 mM IPTG and 2 mM α-ketoglutaric acid, and then 0.5 mM 2,4-D. The temperature was switched to 28° C. and the cultivation continued overnight. In the next morning, 200 μL of each bacteria solution was taken and centrifuged to precipitate thallus, 180 μL of the supernatant was taken and added in a 96-well plate, and 20 μL of borate buffer of pH 10 was added. Then the mixture was added with 2 μL of 8% potassium ferricyanide and mixed well, followed by adding 2 μL of 2% 4-aminoantipyrine, and placed at room temperature for 5 min to observe the color and detect the A510 value.
The bacteria solution also appeared red when 2,4-D was directly added into the medium of AAD12-expressing bacteria, as shown in FIG. 1.
2,4-D was added into these bacteria solutions of AAD gene-expressing recombinant E. coli and cultivation was continued for color development.

[2] = assay type: cell-based, Escherichia coli
Protocol: as §1, with “The culture medium was added with 0.1 mM IPTG and 2 mM α-ketoglutaric acid, and then 0.5 mM 2,4-D.” left out, “value. […]” for “value.”

[3] = system: Arabidopsis thaliana; assay: Herbicide resistance of transgenic Arabidopsis thaliana seedlings on plate medium (root growth); assay type: in vivo; conditions: Arabidopsis overexpressing the gene
Protocol: Expression in Arabidopsis thaliana was regulated by its AtUbi10 Arabidopsis thaliana ubiquitin promoter and the MAS (mannopine synthase) terminator. Hygromycin resistance gene (HygR=hpt) served as the selection marker.
Preparation of Agrobacterium infection solution: An activated Agrobacterium (GV3101) monoclone was picked and inoculated in 30 ml YEP liquid medium [yeast powder 10 g/L, tryptone 10 g/L, NaCl 5 g/L, 25 mg/L Rifampicin and 50 mg/L Kanamycin], shaking-cultured at 200 rmp/min, 28° C. overnight until the OD600 was about 1.0-1.5, then centrifuged at 6000 rmp/min for 10 min to collect the bacteria, and the supernatant was discarded. Arabidopsis thaliana infection solution (sucrose 50 g/L, Silwet L-77 300 μL/L, no need to adjust pH) was used to resuspend the cells to OD600=0.8 for later use.
Genetic transformation of Arabidopsis thaliana by flower dipping: Before transformation of Arabidopsis thaliana plants, attentions were paid to whether the plants were growing well, the inflorescences were abundant, and no stress response occurred. The first transformation was performed when plants were about 20 cm high. Plants could be properly watered if the soil was dry. The grown siliques were cut off with scissors the day before transformation. The inflorescences of the plants to be transformed were soaked in the above-mentioned Agrobacterium solution for 30 seconds to 1 minute, which was stirred gently during the period. And a layer of liquid film should appear on the infiltrated plant. The transformed plants were cultured in a dark environment for 24 hours, and then taken out and grown in a normal light environment. A second transformation could be performed in the same way a week later.
Seeds were treated with disinfectant for 5 min, washed with sterile water for 5 times and then one part was spread on MS transgenic screening medium (containing 30 μg/mL hygromycin, 100 μg/mL carbenicillin) to screen transgenic seedlings, and the other part was spread on MS medicated medium [containing 250 μg/mL Cefotaxime sodium and 0.3 μM 2,4-D] to screen herbicide-resistant seedlings at mean time. The petri dish spread with seeds was placed at 4° C. for vernalization for 3 days, and taken out to a illumination incubator for cultivation (temperature of 22° C., 16 hours of light, 8 hours of darkness, light intensity of 100-150 μmol/m^2/s, humidity of 75%). After one week, it was observed that the roots of the wild-type control seedlings were not elongated and their growth was inhibited, while the transgenic seedlings had normal root growth, showing drug resistance. The transgenic positive seedlings and herbicide-resistant seedlings were photographed and transplanted into small pots filled with soil for cultivation.
The transgenic lines with the nine vectors, pQY2309, pQY2310, pQY2311, pQY2312, pQY2313, pQY2314, pQY2315, pQY2316 and pQY2317, overexpressing AAD gene in the T2 generation were further tested on plate medium for their resistance to 2,4-D, 2,4-DB sodium and MCPA herbicide. Two events were tested for each transformant.

B1: QYD35: AAD-like enzyme, SEQ ID NO. 69 (protein)
chain: MSARPFTVEPLPATFGARITGLDLAALDDATFAALYDAWLEYALLIFPGAGLSTAEQVTFARRFGDMEFDIAPLSNVRKDGSLRADDGTDDVVKVLRGNMGWHADSTYMPVQAKGAVFSAHVVPEEGGETGWADMRAAYDALDDDLRRRIEGLSAHHSLVHSQARLGHAHGTDSEYSGYGFHDEAPLRPLVKVHPETGRRSLLIGRHAYGIPGLEETASERLLDELVDFACRPPRVYHHRWQVGDVVLWDNRCLLHRACPWDMSRPRVMYHSRIAGDPVTEAGLAGQSEQPSASGS
modifications: Synthetic polypeptide, QYD35, D35
Chromogenic reaction of degrading herbicides in bacteria: 2,4-D [1]: Yes
Chromogenic reaction of degrading herbicides in bacteria: 2,4-D ([1]; listed as D35): red reactions
Chromogenic reaction of degrading herbicides in bacteria: MCPA [2]: NO

B2: QYD26: AAD-like enzyme, SEQ ID NO. 51 (protein)
chain: MSEFIYTLPSHNRAASYSHIRVTPTTGAIGADVENLDLTRLSDEGFAELRQALLAHKVIFIRDQALSVADLERVTQHLGEFGREPYVTCMADHPHVVHVVKEASEKAPFVFGGAWHTDWTFQERPPAFTLLYGHDIPPYGGDTCYANLALAYEWLSPGMQALLENLDAVHSPEMAYGVNAKHNALLENMAINYGSDTSADERSHPLVTRHPETGKKVLFINPAYTTGIKGLRTEESRPLLDYLFKLATSEAFTCRMRWRQGTLAIWDNRSTWHMPVADYHGMRREMFRTTVIGEVPSR
modifications: Synthetic polypeptide, QYD26, D26
Chromogenic reaction of degrading herbicides in bacteria: 2,4-D [1]: Yes
Chromogenic reaction of degrading herbicides in bacteria: 2,4-D ([1]; listed as D26): red reactions
Chromogenic reaction of degrading herbicides in bacteria: MCPA [2]: Yes
Resistance of transgenic Arabidopsis thaliana: 2,4-D [3]: Yes

B3: QYD33: AAD-like enzyme, SEQ ID NO. 65 (protein)
chain: MSEHFDVEPLDASFGARITGLKLTEMSDAAFDALYETWLEHGLLLFPDQHMEPEAQVDVARRFGPLEVKLFAISNLKDDGSVRTSDEDDLVKILKGNMGWHHDSTYMPLQAKGAVFSAHVVPSEGGETGFADMRQAWDALDDDMKRRLEGLTALHSLHYSQMKAGFRRKEKDSEYIGYGLDERPPVRRQMVKVHPETGRKSLLVGRHAFGVSGMSEKESEEFVDGLNEFAGSGDWTYHHKWTPGEVVLWDNRCLMHRACPWDMTKPRVMYHSRIAGDPVSEAEVAA
modifications: Synthetic polypeptide, QYD33, D33
Chromogenic reaction of degrading herbicides in bacteria: 2,4-D [1]: Yes
Chromogenic reaction of degrading herbicides in bacteria: 2,4-D ([1]; listed as D33): red reactions
Chromogenic reaction of degrading herbicides in bacteria: MCPA [2]: NO

B4: QYD62: AAD-like enzyme, SEQ ID NO. 123; 100.00% identical to US20140141044-13793 (for medical field) (protein)
chain: MTIAIRQLHKHFVGEVSGLDLRKPLTADEARDIEAAMDKYAVLVFHDQDITDEQQMAFALNFGQREDARGGTVTKAKDYRLQSGLNDVSNLGKDGKPLAKDSRTHLFNLGNCLWHSDSSFRPIPAKFSLLSARVVNPKGGNTEFADMRAAYDALDDETKTEIEDLVCEHSLMYSRGSLGFTEYTDEEKEMFKPVLQRLVRTHPVHRRKSLYLSSHAGKVVGMSVPEGRLLLRDLNEHATQPEFVYVHKWKLHDLVMWDNRQTMHRVRRYDQSQPRDMRRATVAGTEPTVQQQAAE
modifications: Synthetic polypeptide, QYD62, D62
Chromogenic reaction of degrading herbicides in bacteria: 2,4-D [1]: Yes
Chromogenic reaction of degrading herbicides in bacteria: 2,4-D ([1]; listed as D62): could degrade 2,4-D; also recorded: capable of degrading 2,4-D
Chromogenic reaction of degrading herbicides in bacteria: MCPA [2]: Yes

B5: QYD21: AAD-like enzyme, SEQ ID NO. 41 (protein)
chain: MTTIETKPLTPCFGVEVSGMTLSEVSKGHDFARLRDLFEEHSALLFRAQEISNEEHMALAQLFGPIEDRKADERKPGEAFEVPEVSNVQKDGTTSGEMDLHTLNLKSNFLWHSDSTFLPTPALTNILIGRVVTTEGGATELASTRAAWAAMPEELKSRIRGRGIWHRYSHSRRKISPELAKLPMFNKWPDQHWSAVWPNPVNGREGLYIASHAFKVDGYDEAESQELLDELMAFCTQPEFTYAHQWNVGDVLIWDQRAVLHRGTPWPYEQPRTLSSICVSVTEADGIGSIRMPA
modifications: Synthetic polypeptide, QYD21, D21
Chromogenic reaction of degrading herbicides in bacteria: 2,4-D [1]: Yes
Chromogenic reaction of degrading herbicides in bacteria: 2,4-D ([1]; listed as D21): could degrade 2,4-D; also recorded: capable of degrading 2,4-D
Chromogenic reaction of degrading herbicides in bacteria: MCPA [2]: Yes
Resistance of transgenic Arabidopsis thaliana: 2,4-D [3]: Yes

B6: QYD32: AAD-like enzyme, SEQ ID NO. 63 (protein)
chain: MSQMTFEPLSGPTFGARVHGVKLTAMDDAAFRELHDNWLEYGLLIVPEQFLTREEQIAFARRFGDLEFEIAEIGNMRDDGSLRPDDGSDEMMKINRGNMGWHHDSTYMPVQAKGAVFSAEIVPQEGGATGFADMRAAYDELDDAMKARIENLRAHHSLHHSQGKVGHKTKPVKDGKVNAGGTFGGYGLHDGPVSVRPLVKVHPETGRKNLLVGRHAYDIIGMSSEESEKLLQDLVDFACQPPRIYHHQWAPGDAVIWDNRRLMHQATPWPFDQARRMWHSRIAGDPATEAAMAA
modifications: Synthetic polypeptide, QYD32, D32
Chromogenic reaction of degrading herbicides in bacteria: 2,4-D [1]: Yes
Chromogenic reaction of degrading herbicides in bacteria: 2,4-D ([1]; listed as D32): red reactions
Chromogenic reaction of degrading herbicides in bacteria: MCPA [2]: NO
Resistance of transgenic Arabidopsis thaliana: 2,4-D [3]: Yes

B7: QYD54: AAD-like enzyme, SEQ ID NO. 107 (protein)
chain: MARMFDIAPLDATFGAVVTGVKVTRIDDATWRDLHAAWLEYALLIFPGQFLSRAEQIAFAKRFGPLEFEMAPISNVKADGTIRIEADNDDVVKVLKGNMGWHADSTYMPVQAKGAVFSAEVVPGEGGRTGWADMRAAYDALDAARRVRVESLTAYHSLYYSQAKLGHQPKRGSDYSGYGFHDGPVPRRPLVKVHPETGRKSLLIGRHAHNIPGMDVAESTQFLESLVDFACQPPRIYHHQWTAGDAVVWDNRCLLHRATPWDMTKPRVMWHSRIAGDPVSEASLG
modifications: Synthetic polypeptide, QYD54, D54
Chromogenic reaction of degrading herbicides in bacteria: 2,4-D [1]: Yes
Chromogenic reaction of degrading herbicides in bacteria: 2,4-D ([1]; listed as D54): could degrade 2,4-D; also recorded: capable of degrading 2,4-D
Chromogenic reaction of degrading herbicides in bacteria: MCPA [2]: Yes

— patent US20240043859A1, “HERBICIDE-RESISTANT PROTEIN, AND GENE AND USE THEREOF” (QINGDAO KINGAGROOT CHEMICAL COMPOUND CO., LTD., priority 2020, published 2024)
